Tests used:
hnRNPA1 [1] = molecular target: T1, hnRNPA1 (UniProt P09651 1-251+304-372, internal_change); experiment: CD; peak shift 265 to 260 nm on protein addition; Na+; EMSA: 10 mM Tris-HCl pH 7.0, 100 mM NaCl, 0.1 mg/mL BSA, 5 mM DTT, 10% glycerol, 30 min room temperature; 8% native PAGE, 1x TBE + 20 mM NaCl, 80 V, 4 C; conditions: protein: recombinant; (pET-15b, Ni-NTA); label: 32P (T4 PNK, 5'); intermolecular dimeric parallel G-quadruplex, 2 strands
hnRNPA1 [2] = molecular target: T1, hnRNPA1; experiment: EMSA; 100 mM Na+; EMSA: 10 mM Tris-HCl pH 7.0, 100 mM NaCl, 0.1 mg/mL BSA, 5 mM DTT, 10% glycerol, 30 min room temperature; 8% native PAGE, 1x TBE + 20 mM NaCl, 80 V, 4 C; conditions: protein: recombinant; (pET-15b, Ni-NTA); label: 32P (T4 PNK, 5'); intermolecular dimeric parallel G-quadruplex, 2 strands

T1 sequence (P09651 other isoform, or with tags, fused parts or gaps): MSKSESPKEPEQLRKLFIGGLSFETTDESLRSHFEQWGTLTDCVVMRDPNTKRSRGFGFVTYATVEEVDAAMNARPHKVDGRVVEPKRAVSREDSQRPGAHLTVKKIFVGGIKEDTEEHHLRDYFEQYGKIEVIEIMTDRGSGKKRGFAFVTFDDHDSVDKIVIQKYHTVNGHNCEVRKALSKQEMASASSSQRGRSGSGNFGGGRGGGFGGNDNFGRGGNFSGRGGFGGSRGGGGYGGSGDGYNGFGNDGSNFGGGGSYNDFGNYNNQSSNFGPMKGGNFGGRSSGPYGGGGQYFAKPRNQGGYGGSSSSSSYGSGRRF

Binder | binding result (hnRNPA1 [1]) | binding result (hnRNPA1 [2])
UUAGGGUUAGGG (XNA, 2'-O-methyl at positions 7-9 (UmUmAm)) [2'-O-Me-loop-Gq] | binds | –
UUAGGGUUAGGG (structured_RNA) [Native-RNA-Gq] | – | binds
